Where two headings read alike, the source gives them in different places. Starred links: 1 amine or outer side, 2 acyl side, 3 side chain; linkers in the order of their positions; H or OH if unused. Non-standard residues stand in square brackets, D forms with d. Groups on a side chain read outwards from the residue. No end group written: not given here. *: point of attachment. C20 diacid = O=C(O)CCCCCCCCCCCCCCCCCCC(=O)*; C18 diacid = O=C(O)CCCCCCCCCCCCCCCCC(=O)*; γGlu = O=C(O)[C@H](CCC(=O)[*:2])N[*:1]; εLys = N[C@@H](CCCCN[*:1])C(=O)[*:2]; AEEA = NCCOCCOCC(=O)O; Aib = CC(C)(N)C(=O)O; Ahx = NCCCCCC(=O)O
What was measured:
hGLP1R = target: T1, hGLP1R (Homo sapiens, UniProt P43220); test: hGLP1R CreLuc reporter gene assay in 0.5% and 100% plasma; format: cell-based; conditions: CreLuc reporter gene assay
T1 construct: expressed in transfected cells; host or cells: HEK-293 cells carrying a CRE-luciferase reporter gene
T1 sequence (P43220 24-463): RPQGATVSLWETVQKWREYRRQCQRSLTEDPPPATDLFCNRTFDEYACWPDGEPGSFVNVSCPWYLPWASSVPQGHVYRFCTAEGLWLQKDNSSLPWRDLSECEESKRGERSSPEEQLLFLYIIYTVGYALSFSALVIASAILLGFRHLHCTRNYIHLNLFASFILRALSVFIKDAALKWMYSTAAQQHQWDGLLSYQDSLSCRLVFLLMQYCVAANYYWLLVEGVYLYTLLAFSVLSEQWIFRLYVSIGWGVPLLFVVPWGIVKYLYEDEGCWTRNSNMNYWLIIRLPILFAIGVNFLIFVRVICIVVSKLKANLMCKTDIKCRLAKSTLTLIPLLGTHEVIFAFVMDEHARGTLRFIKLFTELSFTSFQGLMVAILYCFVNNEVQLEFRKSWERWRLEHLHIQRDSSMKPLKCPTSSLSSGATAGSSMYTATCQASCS
Outline: (§1)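 HEK-293 cells co-expressing GLP-1 or NPY2 receptor and CHO cells expressing GIP receptor, each carrying a CRE-driven luciferase reporter, were stimulated with peptides for 4 hours at 37 °C. Luminescence was read after Bright-Glo addition. EC50 came from 8-point, four-decade curves fitted by variable-slope non-linear regression.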

hGIPR = target: T2, hGIPR (Homo sapiens, UniProt P48546); test: hGIPR CreLuc reporter gene assay in 0.5% and 100% plasma; format: cell-based; conditions: CreLuc reporter gene assay
T2 construct: expressed in transfected cells; host or cells: CHO cells carrying a CRE-luciferase reporter gene
T2 sequence (P48546 22-466): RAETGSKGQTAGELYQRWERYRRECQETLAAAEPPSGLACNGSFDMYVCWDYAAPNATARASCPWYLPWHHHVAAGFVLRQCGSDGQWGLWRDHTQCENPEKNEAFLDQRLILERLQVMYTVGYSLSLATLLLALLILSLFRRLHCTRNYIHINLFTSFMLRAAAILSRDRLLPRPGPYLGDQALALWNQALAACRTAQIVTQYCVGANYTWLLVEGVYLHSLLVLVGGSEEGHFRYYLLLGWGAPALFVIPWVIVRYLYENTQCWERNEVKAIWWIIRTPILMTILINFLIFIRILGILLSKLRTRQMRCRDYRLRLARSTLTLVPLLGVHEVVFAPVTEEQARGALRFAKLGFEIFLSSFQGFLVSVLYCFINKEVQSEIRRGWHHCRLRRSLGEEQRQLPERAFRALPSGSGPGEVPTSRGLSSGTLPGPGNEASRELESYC
Outline: as §1

hNPY2R = target: T3, hNPY2R (Homo sapiens, UniProt P49146); test: hNPY2R CreLuc reporter gene assay in 0.5% and 100% plasma; format: cell-based; conditions: CreLuc reporter gene assay
T3 construct: expressed in transfected cells; host or cells: HEK-293 cells carrying a CRE-luciferase reporter gene
T3 sequence (P49146 1-381): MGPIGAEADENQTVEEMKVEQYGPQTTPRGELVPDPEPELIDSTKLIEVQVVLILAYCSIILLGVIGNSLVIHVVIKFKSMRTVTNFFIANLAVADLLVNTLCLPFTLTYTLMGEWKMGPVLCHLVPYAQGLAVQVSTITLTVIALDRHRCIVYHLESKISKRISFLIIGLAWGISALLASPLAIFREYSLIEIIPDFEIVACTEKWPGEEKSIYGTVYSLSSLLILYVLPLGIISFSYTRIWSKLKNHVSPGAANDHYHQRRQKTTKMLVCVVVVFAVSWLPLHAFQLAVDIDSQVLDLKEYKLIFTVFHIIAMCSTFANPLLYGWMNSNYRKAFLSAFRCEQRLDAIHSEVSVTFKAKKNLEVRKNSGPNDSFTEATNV
Outline: as §1

human GLP-1 receptor = human GLP-1 receptor (human, UniProt P43220 24-463); test: cell-based or functional assay
human GIP receptor = target: T4, human GIP receptor (human, UniProt P48546 22-466); test: cell-based or functional assay
T4 sequence (looked up): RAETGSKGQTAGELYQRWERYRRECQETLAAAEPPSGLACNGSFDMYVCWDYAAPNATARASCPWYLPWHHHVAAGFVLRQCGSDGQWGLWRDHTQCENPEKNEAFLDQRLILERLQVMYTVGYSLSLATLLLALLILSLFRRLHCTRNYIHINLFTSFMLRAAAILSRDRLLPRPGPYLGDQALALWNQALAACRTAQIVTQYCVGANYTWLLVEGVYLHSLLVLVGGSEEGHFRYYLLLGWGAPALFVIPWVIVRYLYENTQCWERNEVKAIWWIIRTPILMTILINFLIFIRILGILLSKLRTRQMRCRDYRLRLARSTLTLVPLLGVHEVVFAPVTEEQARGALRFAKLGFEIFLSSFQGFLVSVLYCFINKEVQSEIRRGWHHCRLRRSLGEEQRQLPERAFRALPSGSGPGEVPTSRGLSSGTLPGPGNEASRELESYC

[1] = target: T5, human neuropeptide Y2 receptor (human, UniProt P49146 1-381); test: cell-based or functional assay
T5 sequence (looked up): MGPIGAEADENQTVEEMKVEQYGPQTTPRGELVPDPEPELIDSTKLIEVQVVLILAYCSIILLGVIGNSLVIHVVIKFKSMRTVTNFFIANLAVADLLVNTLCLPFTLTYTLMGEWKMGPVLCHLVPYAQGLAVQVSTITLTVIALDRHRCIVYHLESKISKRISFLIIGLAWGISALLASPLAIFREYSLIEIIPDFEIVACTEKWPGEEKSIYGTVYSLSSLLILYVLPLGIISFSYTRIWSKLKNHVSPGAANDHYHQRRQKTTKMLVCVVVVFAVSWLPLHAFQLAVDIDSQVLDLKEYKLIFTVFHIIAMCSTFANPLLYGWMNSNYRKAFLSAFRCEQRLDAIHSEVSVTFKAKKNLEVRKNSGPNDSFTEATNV

[2] = 0.5% human plasma, read-out: hGLP1R 0.5% hP
[3] = 0.5% human plasma, read-out: hGIPR 0.5% hP
[4] = 0.5% human plasma, read-out: hNPY2R 0.5% hP
[5] = 100% human plasma, read-out: hNPY2R 100% hP

Y[Aib]EGTFTSDYSI[Aib]LEKQAQ[Aib]AFVQWLIK([AEEA-AEEA-γGlu-γGlu-γGlu-γGlu-γGlu-C18 diacid])GGPSSGASLRHYYNWLTRQRY-NH2 [Compound 167, Y-Aib-E-G-T-F-T-S-D-Y-S-I-Aib-L-E-K-Q-A-Q-Aib-A-F-V-Q-W-L-I-K(1,3)-GGPSSGASLRHYYNWLTRQRY-NH2.C18DA-gGlu-gGlu-gGlu-gGlu-gGlu-OEG-OEG(1,2)]
EC50 (hGLP1R; [2]): 0.04 nM | EC50 (hGLP1R; 100% human plasma, read-out: hGLP1R 100% hP): 0.82 nM | EC50 (hGIPR; [3]): 0.14 nM | EC50 (hGIPR; 100% human plasma, read-out: hGIPR 100% hP): 0.49 nM | EC50 (hNPY2R; [4]): 10.5 nM | EC50 (hNPY2R; [5]): 26.5 nM

Y[Aib]EGTFTSDYSI[Aib]LEKQAQ[Aib]AFVQWLIK([Ahx-γGlu-γGlu-γGlu-γGlu-γGlu-γGlu-C18 diacid])GGPSEGASLRHYYNWLTRQRY-NH2 [Compound 245, Y-Aib-E-G-T-F-T-S-D-Y-S-I-Aib-L-E-K-Q-A-Q-Aib-A-F-V-Q-W-L-I-K(1,3)-GGPSEGASLRHYYNWLTRQRY-NH2.C18DA-gGlu-gGlu-gGlu-glu-gGlu-Glu-AHX(1,2)]
EC50 (hGLP1R; [2]): 0.09 nM | EC50 (hGIPR; [3]): 0.37 nM | EC50 (hNPY2R; [4]): 24.5 nM

Y[Aib]EGTFTSDYSI[Aib]LEKQAQ[Aib]AFVQWLIK([Glu-γGlu-γGlu-γGlu-γGlu-C20 diacid])GGPSEGASLRHYYNWLTRQRY-NH2 [Compound 243, Y-Aib-E-G-T-F-T-S-D-Y-S-I-Aib-L-E-K-Q-A-Q-Aib-A-F-V-Q-W-L-I-K(1,3)-GGPSEGASLRHYYNWLTRQRY-NH2.C20DA-gGlu-gGlu-gGlu-gGlu-Glu(1,2)]
EC50 (hGLP1R; [2]): 0.12 nM | EC50 (hGIPR; [3]): 0.54 nM | EC50 (hNPY2R; [5]): 50.6 nM

B1: Compound 169 (peptide)
peptide: Y[Aib]EGTFTSDYSI[Aib]LEKQAQ[Aib]AFVQWLIK([εLys-γGlu-γGlu-γGlu-γGlu-γGlu-C20 diacid])GGPSEPASLRHYYNWLTRQRY-NH2
EC50 CreLuc hGLP1R 0.5% hP (human GLP-1 receptor): 0.13 nM | EC50 CreLuc hGLP1R 100% hP (human GLP-1 receptor): 7.3 nM | EC50 CreLuc hGIPR 0.5% hP (human GIP receptor): 0.26 nM | EC50 CreLuc hGIPR 100% hP (human GIP receptor): 3.15 nM | EC50 CreLuc hNPY2R 0.5% hP [1]: 10.3 nM | EC50 CreLuc hNPY2R 100% hP [1]: 50.3 nM

B2: Compound 88 (peptide)
peptide: Y[Aib]EGTFTSDYSI[Aib]LEKQAQ[Aib]EFVEWLIK([εLys-γGlu-γGlu-γGlu-γGlu-γGlu-γGlu-γGlu-C20 diacid])GGPSSGASLRHYYNWLTRQRY-NH2
EC50 CreLuc hGLP1R 0.5% hP (human GLP-1 receptor): 1.12 nM | EC50 CreLuc hGLP1R 100% hP (human GLP-1 receptor): 7.18 nM | EC50 CreLuc hGIPR 0.5% hP (human GIP receptor): 0.53 nM | EC50 CreLuc hGIPR 100% hP (human GIP receptor): 1.58 nM | EC50 CreLuc hNPY2R 0.5% hP [1]: 20.4 nM | EC50 CreLuc hNPY2R 100% hP [1]: 45.4 nM

B3: Compound 92 (peptide)
peptide: Y[Aib]EGTFTSDYSI[Aib]LEKQAQ[Aib]AFVQWLIK([εLys-γGlu-γGlu-γGlu-Glu-γGlu-γGlu-γGlu-C20 diacid])GGPSSGASLRHYYNWLTRQRY-NH2
EC50 CreLuc hGLP1R 0.5% hP (human GLP-1 receptor): 0.08 nM | EC50 CreLuc hGLP1R 100% hP (human GLP-1 receptor): 3.16 nM | EC50 CreLuc hGIPR 0.5% hP (human GIP receptor): 0.33 nM | EC50 CreLuc hGIPR 100% hP (human GIP receptor): 1.64 nM | EC50 CreLuc hNPY2R 0.5% hP [1]: 7.48 nM | EC50 CreLuc hNPY2R 100% hP [1]: 27.9 nM

B4: Compound 171 (peptide)
peptide: Y[Aib]EGTFTSDYSI[Aib]LEKQAQ[Aib]EFVEWLIK([AEEA-AEEA-γGlu-γGlu-γGlu-C18 diacid])GGPSSGASLRHYYNWLTRQRY-NH2
EC50 CreLuc hGLP1R 0.5% hP (human GLP-1 receptor): 0.27 nM | EC50 CreLuc hGLP1R 100% hP (human GLP-1 receptor): 4.17 nM | EC50 CreLuc hGIPR 0.5% hP (human GIP receptor): 0.2 nM | EC50 CreLuc hGIPR 100% hP (human GIP receptor): 0.83 nM | EC50 CreLuc hNPY2R 0.5% hP [1]: 7.51 nM | EC50 CreLuc hNPY2R 100% hP [1]: 30.4 nM

B5: Compound 170 (peptide)
peptide: YXEGTFTSDYSIXLEKQAQXAFVQWLIKGGPSSGASLRHYYNWLTRQRY
modifications: Aib at 2, 13, 20; K28 side chain: C18DA-gGlu-gGlu-gGlu-gGlu-gGlu-gGlu-eLys; C-terminal NH2
EC50 CreLuc hGLP1R 0.5% hP (human GLP-1 receptor): 0.09 nM | EC50 CreLuc hGLP1R 100% hP (human GLP-1 receptor): 0.98 nM | EC50 CreLuc hGIPR 0.5% hP (human GIP receptor): 0.24 nM | EC50 CreLuc hGIPR 100% hP (human GIP receptor): 1.15 nM | EC50 CreLuc hNPY2R 0.5% hP [1]: 19.2 nM | EC50 CreLuc hNPY2R 100% hP [1]: 33.2 nM

— patent US20240247080A1, “GLP1/GIP/NPY2 RECEPTOR TRIPLE AGONISTS” (Boehringer Ingelheim International GmbH, priority 2022, published 2024)
